# Measurements as given in paper PMC7283272, “Identifying the role of PrimPol in TDF-induced toxicity and implications of its loss of function mutation in an HIV+ patient”.
# T1: PrimPol WT (UniProt Q96LW4 1-560)
# T1 sequence: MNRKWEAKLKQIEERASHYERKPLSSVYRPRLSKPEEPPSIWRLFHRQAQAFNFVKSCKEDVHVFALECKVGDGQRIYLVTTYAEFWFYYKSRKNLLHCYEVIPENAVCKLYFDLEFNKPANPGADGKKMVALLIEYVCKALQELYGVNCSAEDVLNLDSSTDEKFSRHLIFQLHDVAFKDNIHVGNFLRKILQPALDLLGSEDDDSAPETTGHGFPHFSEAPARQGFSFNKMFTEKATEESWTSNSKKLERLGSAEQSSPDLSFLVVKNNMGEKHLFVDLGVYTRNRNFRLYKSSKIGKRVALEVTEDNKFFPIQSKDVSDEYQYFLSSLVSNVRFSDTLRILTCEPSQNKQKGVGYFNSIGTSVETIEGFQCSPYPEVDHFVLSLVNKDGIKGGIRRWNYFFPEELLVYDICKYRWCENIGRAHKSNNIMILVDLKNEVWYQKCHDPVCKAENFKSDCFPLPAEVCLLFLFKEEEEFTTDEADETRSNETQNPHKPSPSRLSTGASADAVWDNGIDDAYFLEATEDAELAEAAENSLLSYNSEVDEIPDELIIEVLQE
# Molecular target: T1, PrimPol WT
# Experiment: thermal shift (DSF, stabilization by DNA); 10 uM Mn2+; EMSA: Mn2+ present, buffer not given in the material. DSF: 5 uM protein, 5 uM dsDNA, 50 mM Tris pH 7.5, 300 mM NaCl, 0.5 uM TCEP, 5% glycerol, 10 uM MgCl2 or MnCl2, 4-95 C ramp
# Conditions: protein: recombinant; tags: N-terminal His-TEV (tag cleaved); 20 bp, template 5' overhang 25 nt
binder,measurement,value
D20A/D45 primer/template (dsDNA) DNA 1: GCCTCGCAGCCGTCCAACCA DNA 2: GGACGGCATTGGATCGAGGTTGAGTTGGTTGGACGGCTGCGAGGC,binding result,binds
